tested on: Saccharomyces cerevisiae; assay: transcriptional activation domain activity (GFP:mCherry ratio, weighted mean of sorted bins, harmonized to initial dataset scale) (arbitrary fluorescence ratio units); higher = stronger transcriptional activation; conditions: beta-estradiol 1 µM; induction time 4 h
Protocol: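 53-aa protein tiles (fungal proteins plus yeast TF control tiles) fused C-terminally to a DBD-estrogen-binding domain-mCherry synthetic TF, integrated in S. cerevisiae (URA3 locus) with a GFP reporter. Cells were induced with 1 uM beta-estradiol for 4 h at 30 C, FACS-sorted into 8 bins by GFP:mCherry ratio and barcodes sequenced. Activity is the read-weighted mean bin fluorescence (GFP:mCherry), averaged over barcodes (median 12); tiles under 50 reads were discarded. New active-learning values were harmonized by linear fit onto the scale of the initial (Hummel et al.) dataset. The assay saturates at low and high signal.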

Sequence | transcriptional activation domain activity
EASLKAQKDEENESEEEGEGEEKEEGEKKEEEKKEEEKKEEEKKEDLEKLTEK | 33100
LQLAFYFGFIMVFVCSYMKRNTLVLLLFLLNNLCMVFRFYASDLLYQYWLIPV | 61800
VSDYSMAQFRFLLKFLLVHGRWNYVRICKYTVGTFWKELLFYLTQALFQRSNG | 46600
KLTLADLAPSPMAYRLWMFISGLYSLVDPFVRPLVRTYFAACLRLLIRWVPGI | 59400
TDDAPRVKTKAEKEKEKKEKEKQRKKEMAAKKKANAPAKQEAAKPAETKAAAA | 41100
HASAAPTATPAAPTVEKAKPKSREASPAKPKSPERRRPASPAPAAAVPEPVAA | 32900
MLHLVTCISPSLYTSIFFLYLFHYFPSSHFLLNCRTSMHFSLSRLTFIYVLVL | 50200
AAAPDVENEPAGRRKAAAAGVEQGGGHPHMLKGVCGNAGWGDAQAAAGKACKG | 26900
AMRSWSGLMVLSMYDFRPIRSLIASILFPNAAIRETVLDLLFSLLRIKPPAWA | 38100
FRMVLLVYQVAWAVHVYRTRNIALAYLNNYARMMYAIRSYNYQCLFHQIDLEG | 57100
PPPPPPPPPGPSPARFAPPPAPPPPPPPSGRPAPPPAPPPPPPPPPPAFGGGP | 17000
RSAPGGRAGGRDGGSSSSSSDSSDEERETDGPVRKRRRTATSGARKAAPKSRP | 29200
KRQKSRKGSESDAESEGEGDRGGARAYGKSRPQGRSADARADRKSAKGARAPQ | 34200
SGTEDEDAAEDKSAAEDESGTEDESGTKDESGTEDEKLVRDIEEVVIVVEVVM | 32900
MFLYSHPPLHPNVFLPPPSLFICTMLQLVFYRPSSVYLLLLLFWIYPPLFLLC | 56400
LTNLNEIDFTNMFCNDNFIQNYNQGLMELLTEPTPGPSSSSCILPSTPTRPLS | 83000
HGTLCDIYLVIILKCCGDDDNSVSLVEGIALAPSSARSNAFERVGKFGGGPES | 46900
MLRYFPTYRDEVVNAANYLNVVLSMDAFYYYQFCLNWTSTQLYDTWFNACFRI | 59100
PATTSPAPRGLTASGQPRKKPGPKPKLKDPNAPEPEKKARKARKVVEAKDPAV | < 6570
ETYLFLQDQDESADSHHHDELGSEITLADNKFSYLPPTLEELMEEQDCNNGRS | 84700
MPSCFCFIPEFTALSLPPLCSLFWFRLCTWLFLRMLCTRIYLFCSWFFCLTYF | 56400
GDEDEEDTAELKEEALKGLIAVLVCASVLSIVRALMHSQLDLSILELLVDNMT | 53600
KRRGDQGKEQDRKGGEGGEEERGNGARGGGSARKEGDKGGEQKEGGRQRERAG | 41700
RSKHWEMLSVLHAGMVLLTAWFFFHCIDLIIHLERARVAYGYIVVPALFDILR | 46500

Sequence | transcriptional activation domain activity
GEGEAKTKKRNKRSKAPVEGEAAETPAAATTEGEEAAAPAAPKKEKKPRKPRA | 8960
MSVFILFVGCFYCMVCLFSPSYMWFFCGVISILFLIFPFLHDFQLYFFFGGGH | 41700
SERLKNTGASGERAREGISINAGLASLGKVISQLSSRQPGAHVSYRDSKLTRL | 48800
FLLGVFVCLVNLREWWMVDRGPRIMMGEFGKVLSVRMRFALTLHFREQVHVNH | 48800
MSTPKVVASATRQINAVVVSAGLMQKTVKARVGVQKWNRHIKKHFNRSTNVLV | 53100
MSFLYFIRCFVSFHLELLDCYYMMIECLFIFLIFCITICLPFICLYSLLVECF | 49800
MYMIFINPLLLMIILYIKLLPLMFPLLINLLILLIFLLYIHLLSIVFLQKFYI | 60100
MPQTAGQAVWHFILSLLYYQFVPFHIRRFIFSCFPLPVNIPTLFVFLNVLFFW | 51600
MPFRNCFACIICCSWLLYLDVLLILSMYSIYFMGGFARYLFWFIYWFFGIMEL | 44800
KQYCVRPNSGRIEPGRDVEVQVLLQAMREDPPPDAKCRDKFLVQSVAVTADKE | 44900
MDAAVATEPIPKKRGRPRKVASEETPAVEPKGVRKASTKTAAAVKKEEAPKKV | 37900
SQVNKGKVQVWVMYFSFSFFFLFFIHLVCWFLLFCFFFFFVPFIIPLFFFFFL | 32300
MYIQYNILLTFPFLFLHFLFLFFFFFFFFLLFFFFLSRSPLTPSLAPPSPLLT | 65300
FPILLRFIFTHFRMLFSCQLFCLMGFRVECLDFDPGSFILFHLTFLWLPFVLF | 53300
MELFFGLSFFLAYVPGCYSFLLTILIPLLCYYIFTRYLRCLVLHGLGFFFSLF | 77000
EHFAGNNHVNRVVNFVQSCFTFYAPKMCKYYTEILQALFSQPTWWMVCCCGFW | 46200
DGSNGIAQLFGVVFFLFFFLHIYYICWALGLVGFVSGRRGNIVWFVLLCLFLS | 63800
KHEREFEGNSNRDREVVQGKREGGGGERGGRGRGAGGGGERGRGRGNSGRGDG | 12500
EDEEEEAEKAESKPPKKARKSKAEPAVDEDEPAVKPKKKATAASKKRKAESEE | 21100
TDYYQAVGQHDFIKAFHDEIGPFHRKVYDNVIRKIFVLLAIILELPENYFVDR | 40900
VCVLHLIVIALSLTDLILPSLIWGLTAIFLGVYAIVQKLSIALIVQPQLFGTL | 65700
FLVCSFHHSIFGFFFWLFFDFFSFLHWRLCVLFPFWFRSKSSFPSFFFIVIIS | 51300
KVKKEKKEKKHRRHHHRHRDGSDDERSHKRRRRDDDKRGHRSSRSEHRRRSDS | 29800
ADAAGEPAQANGESKSAKRRKQKKAAAAAKAAGATNADGTPAAAAEKPARAQR | 17100

Sequence | transcriptional activation domain activity
MTHALNIVTYLYRQHLLEDEHFLDWILRNLGPCPLERLLVWLLLVSLYWRDLI | 49800
IRLELGIIEDFFGLTLCMSKYLLYHYVISLKLSACFFAVHGYAPNGLDYPWVL | 55000
VCQPLSPPVTGVLLVSFLPLFSRAFLAFLLSTLWLFSPLSDHILYYFCFYLAL | 35200
NIPIESSWHLFTNYVGLDIKQIVLLGKSLHYFNPGFLLHVNLFNWLWPKIVQL | 63300
RKNTSSEEDELEESRNNRNKNHRSRQDGNKEDRSSRSRQSHRQKRERSGSEER | 14100
TIGFVGFVMSLQKGYLKQQFGLFCWVHMSLLIIVLSSHFIVNNILEGLIWFWV | 58700
MWVINRAFLEFYFIFCIVFTVHLVCFCFFWLIFLFCLLHASFLLCDFPFFFYY | 41100
KFIWRSSWSLPKIMYLLIRYLGLVCLLYYAMNAVTVQKSIAVCQLYIISMHTV | 67000
TNNEFEGESDDFVHSPYLNSEADFSQILSSAPPVHHDPNETHQENQDIIDRFA | 66800
MITQILYLDLLHPLHCHFFFFFSFFSSLIVVSVIITRLYFFFFSHLVIFCPFL | 54600
EKEEDAQLRDRHRGRHSVDRDLHRRGGRVRDRSRGERSLRNQPRAAGAGAAAG | 57600
IEKNMYPVGTLLTLADHGFNGWLKTTLLPYLNLLHNLDVLDPELLTIFTSFIL | 54700
VVLGWILGKECMTLYFDTFQIALLFVSVLLVNYLIQDGKSHWLEGVLLVCSYL | 37400
SKSEVSGTGRKAYAQKGRGKARVHSLRAPQFRGGGRAFPVKPRDFSSEIQIKV | 61100
WGRKGRGKSPLYDFDVNEFDPQVLFSTGTRTVEFMDDQNQPSSASAFLSTARP | 49300
AFHKLQLERGWTGAKMVMHLLKVYFSWQYGHHCTVYRPIFMRDMALGGPYFSQ | 55200
CFSILFSRFAGPSIYLGMRILIMLLYVTLTLWTPWLFYFWVSILSLCIAPFLF | 44300
AVVVTVWKLCDHPVMAWILGLIRCLTKKLKEVRQCKEELKQFFRDVVCKIEIA | 39000
KISAEYMVQYKGGLIGKHFKSLSQIMAFVVYDLVPKDILDAWTIIGRLVVLLW | 75900
APFSKGPRMWNEVYITSLAHGCLVNRLFCSLAWCELYLIFGNIFRRLDLKLFV | 58100
MWFLHPLPFPLASSTWLHFVVLSFYIFFFLPFPSCALVLFWCWFFLLVRLLTS | 39400
SRPPRPSASSSTTPRARSRSTARPSRARWPRPRCPSSGGCTRACRTRRCTRRM | 45300
HRVSMFLGYNPGNIVSNCRRCLDQWGPDILIHPSRIYLVVLPWLPPFFRKQLR | 56400
